Measured values reported in article PMC10557571 (bioRxiv, 2023).

B1: Unprocessed Activin E precursor from Construct I (natural protein, human, UniProt P58166 20-350, looked up)
chain: QGTGSVCPSCGGSKLAPQAERALVLELAKQQILDGLHLTSRPRITHPPPQAALTRALRRLQPGSVAPGNGEEVISFATVTDSTSAYSSLLTFHLSTPRSHHLYHARLWLHVLPTLPGTLCLRIFRWGPRRRRQGSRTLLAEHHITNLGWHTLTLPSSGLRGEKSGVLKLQLDCRPLEGNSTVTGQPRRLLDTAGHQQPFLELKIRANEPGAGRRRRRTPTCEPATPLCCRRDHYVDFQELGWRDWILQPEGYQLNYCSGQCPPHLAGSPGIAASFHSAVFSLLKANNPWPASTSCCVPTARRPLSLLYLDHNGNVVKTDVPDMVVEACGCS
B2: Flag-tagged mature Activin E from Construct II (ligand, human, UniProt P58166 237-350, looked up)
chain: TPTCEPATPLCCRRDHYVDFQELGWRDWILQPEGYQLNYCSGQCPPHLAGSPGIAASFHSAVFSLLKANNPWPASTSCCVPTARRPLSLLYLDHNGNVVKTDVPDMVVEACGCS

Target: the molecule itself
Test: SDS-PAGE under non-reducing and reducing conditions with anti-Flag western blot

Row | Protein | stoichiometry N
1 | B1 | 2
2 | B2 | 2
